Assay results as given in publication PMC10343166, “Structure of puromycin-sensitive aminopeptidase and polyglutamine binding” (PLOS ONE, 2023).

Experiments:
[1] = molecular target: T1, Puromycin-sensitive aminopeptidase F433A mutant, with C-terminal polyhistidine sequence (human, UniProt P55786 1-919, F433A); assay: competitive inhibition of enzyme activity (Dixon plots); apparent Ki from inhibition of Ala-4MβNA cleavage at increasing peptide concentrations; 20 mM HEPES pH 7.0, 2 mM BME, 37°C; 20 μM (PSA^wt) or 100 μM (PSA^F433A) Ala-4MβNA; triplicate; details: both partners purified
T1 construct: Human puromycin-sensitive aminopeptidase (PSA, NPEPPS), UniProt P55786, with F433A; also called PSA^F433A
T1 sequence (P55786 whole entry F433A): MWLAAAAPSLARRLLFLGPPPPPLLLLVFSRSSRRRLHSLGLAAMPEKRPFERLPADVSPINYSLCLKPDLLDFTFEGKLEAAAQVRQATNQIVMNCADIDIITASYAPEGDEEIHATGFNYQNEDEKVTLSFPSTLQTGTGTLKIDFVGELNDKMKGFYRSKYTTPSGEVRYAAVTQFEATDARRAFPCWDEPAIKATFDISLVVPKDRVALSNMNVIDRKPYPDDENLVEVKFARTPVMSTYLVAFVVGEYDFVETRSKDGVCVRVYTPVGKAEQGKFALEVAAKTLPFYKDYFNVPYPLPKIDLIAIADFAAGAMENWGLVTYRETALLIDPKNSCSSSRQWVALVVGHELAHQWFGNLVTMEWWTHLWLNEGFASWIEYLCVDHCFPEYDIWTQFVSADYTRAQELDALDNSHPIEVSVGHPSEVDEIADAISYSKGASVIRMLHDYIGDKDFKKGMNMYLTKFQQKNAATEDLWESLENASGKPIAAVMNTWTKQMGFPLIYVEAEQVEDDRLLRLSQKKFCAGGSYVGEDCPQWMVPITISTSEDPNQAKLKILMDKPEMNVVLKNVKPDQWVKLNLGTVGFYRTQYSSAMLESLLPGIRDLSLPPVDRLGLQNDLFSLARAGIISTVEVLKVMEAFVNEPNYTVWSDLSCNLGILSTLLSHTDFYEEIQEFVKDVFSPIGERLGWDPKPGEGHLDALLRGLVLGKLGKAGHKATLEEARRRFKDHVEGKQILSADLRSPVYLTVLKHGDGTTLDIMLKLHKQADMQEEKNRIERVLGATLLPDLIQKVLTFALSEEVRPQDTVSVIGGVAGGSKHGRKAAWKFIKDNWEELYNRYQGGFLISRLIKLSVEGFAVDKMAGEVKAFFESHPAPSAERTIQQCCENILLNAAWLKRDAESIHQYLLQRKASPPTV

[2] = molecular target: T2, Puromycin-sensitive aminopeptidase, wild type, with C-terminal polyhistidine sequence (kinetic studies) (human, UniProt P55786 1-919); assay: as above; details: both partners purified
T2 construct: Human puromycin-sensitive aminopeptidase (PSA, NPEPPS), UniProt P55786; also called PSA^wt; wild type PSA
T2 sequence (P55786 whole entry): as the sequence (P55786 whole entry F433A) above, with A433F counted along it

B1: Polyglutamine peptide Lys2Gln15Lys2 (peptide)
peptide: KKQQQQQQQQQQQQQQQKK
notes: Printed as Lys2Gln15Lys2 (19-mer); In PDB 8SW1 only 6 residues are modelled, deposited as polyalanine; also called PQ; PQ peptide; source: synthetic peptide, bought: Peptidogenic Research and Co; purified (TFA/hexafluoro-2-propanol, centrifugation)
- Ki [1]: 4.9 µM
- Ki [2]: 1.3 µM
